T1: GRIP1_4, Q9Y3R0
T1 sequence (Q9Y3R0 467-571, limits assumed, looked up): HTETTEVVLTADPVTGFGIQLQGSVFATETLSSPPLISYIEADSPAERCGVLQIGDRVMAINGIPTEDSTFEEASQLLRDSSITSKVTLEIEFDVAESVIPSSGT

T2: DLG3_2, Q92796
T2 sequence (Q92796 221-321, limits assumed, looked up): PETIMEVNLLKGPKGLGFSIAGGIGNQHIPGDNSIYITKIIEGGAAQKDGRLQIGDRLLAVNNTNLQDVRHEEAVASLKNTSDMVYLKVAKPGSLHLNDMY

T3: RHPN1, Q8TCX5
T3 sequence (Q8TCX5 508-602, limits assumed, looked up): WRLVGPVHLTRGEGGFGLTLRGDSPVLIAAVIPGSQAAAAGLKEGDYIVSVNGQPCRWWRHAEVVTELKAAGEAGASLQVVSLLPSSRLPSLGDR

T4: PARD3B_1, Q8TEW8
T4 sequence (Q8TEW8 196-299, limits assumed, looked up): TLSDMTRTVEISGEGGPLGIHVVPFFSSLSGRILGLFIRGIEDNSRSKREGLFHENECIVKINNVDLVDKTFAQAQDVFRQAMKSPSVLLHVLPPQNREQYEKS

T5: MPDZ_10, O75970
T5 sequence (O75970 1624-1722, limits assumed, looked up): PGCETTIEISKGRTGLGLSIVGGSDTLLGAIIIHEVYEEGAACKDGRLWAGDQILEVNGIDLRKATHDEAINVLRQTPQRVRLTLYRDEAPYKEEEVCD

T6: HTRA3, P83110
T6 sequence (P83110 354-453, limits assumed, looked up): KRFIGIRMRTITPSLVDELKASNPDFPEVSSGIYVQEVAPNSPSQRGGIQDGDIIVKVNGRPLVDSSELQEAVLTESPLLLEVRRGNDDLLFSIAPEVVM

T7: DFNB31_1, Q9P202
T7 sequence (Q9P202 135-233, limits assumed, looked up): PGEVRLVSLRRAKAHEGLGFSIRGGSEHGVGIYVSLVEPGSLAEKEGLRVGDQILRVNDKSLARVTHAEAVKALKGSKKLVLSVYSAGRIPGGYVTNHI

T8: DLG3_1, Q92796
T8 sequence (Q92796 125-227, limits assumed, looked up): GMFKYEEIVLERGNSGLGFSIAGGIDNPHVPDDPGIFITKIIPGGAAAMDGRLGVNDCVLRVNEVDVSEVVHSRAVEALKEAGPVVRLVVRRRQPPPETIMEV

T9: PTPN13_1, Q12923
T9 sequence (Q12923 1088-1188, limits assumed, looked up): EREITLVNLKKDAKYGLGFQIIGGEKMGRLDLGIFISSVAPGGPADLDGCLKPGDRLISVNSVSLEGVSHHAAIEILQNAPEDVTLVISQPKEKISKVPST

T10: LIN7B, Q9HAP6
T10 sequence (Q9HAP6 88-185, limits assumed, looked up): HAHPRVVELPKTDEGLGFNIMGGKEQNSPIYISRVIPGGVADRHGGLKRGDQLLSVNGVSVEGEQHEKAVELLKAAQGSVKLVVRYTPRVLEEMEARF

T11: GRIP1_2, Q9Y3R0
T11 sequence (Q9Y3R0 145-248, limits assumed, looked up): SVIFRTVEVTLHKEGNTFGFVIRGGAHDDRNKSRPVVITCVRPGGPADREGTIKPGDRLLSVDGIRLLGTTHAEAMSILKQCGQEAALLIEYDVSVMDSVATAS

T12: SYNJ2BP, P57105
T12 sequence (P57105 8-110, limits assumed, looked up): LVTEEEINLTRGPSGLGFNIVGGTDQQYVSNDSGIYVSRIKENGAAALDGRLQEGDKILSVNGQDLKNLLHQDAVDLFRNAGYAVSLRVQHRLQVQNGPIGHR


Target: T1, GRIP1_4, Q9Y3R0
Assay: holdup assay
Set-up: key: below the threshold = too weak to quantify, mostly under pKd 3.1 to 4
Conditions: modified: phospho on T at position -2 from the C-terminal residue

Question: SKPTRRETEV [HPV35-E6_-2P, P27228] was tested. Which pKd did it give?
Answer: below the threshold

Target: T2, DLG3_2, Q92796
Assay: holdup assay
Set-up: key: below the threshold = too weak to quantify, mostly under pKd 3.1 to 4
Conditions: modified: phospho on T at position -2 from the C-terminal residue

Question: With SKPTRRETEV [HPV35-E6_-2P, P27228] as the binder, how does the pKd read?
Answer: below the threshold

Target: HTRA1, Q92743
Sequence (Q92743 360-477): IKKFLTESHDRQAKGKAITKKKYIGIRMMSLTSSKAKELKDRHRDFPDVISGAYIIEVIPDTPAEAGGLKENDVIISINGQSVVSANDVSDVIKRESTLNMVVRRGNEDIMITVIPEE
Assay: holdup assay
Set-up: key: below the threshold = too weak to quantify, mostly under pKd 3.1 to 4
Conditions: modified: phospho on T at position -2 from the C-terminal residue

Question: For SKPTRRETEV [HPV35-E6_-2P, P27228], which pKd is on record?
Answer: below the threshold

Target: TJP1_3, Q07157
Sequence (Q07157 416-512): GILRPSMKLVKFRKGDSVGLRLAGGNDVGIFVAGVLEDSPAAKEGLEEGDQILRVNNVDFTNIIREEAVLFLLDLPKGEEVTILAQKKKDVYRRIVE
Assay: holdup assay
Set-up: key: below the threshold = too weak to quantify, mostly under pKd 3.1 to 4
Conditions: modified: phospho on T at position -2 from the C-terminal residue

Question: For SKPTRRETEV [HPV35-E6_-2P, P27228], which pKd is on record?
Answer: below the threshold

Target: T3, RHPN1, Q8TCX5
Assay: holdup assay
Set-up: key: below the threshold = too weak to quantify, mostly under pKd 3.1 to 4
Conditions: modified: phospho on T at position -2 from the C-terminal residue

Question: For SKPTRRETEV [HPV35-E6_-2P, P27228], which pKd is on record?
Answer: below the threshold

Target: T4, PARD3B_1, Q8TEW8
Assay: holdup assay
Set-up: key: below the threshold = too weak to quantify, mostly under pKd 3.1 to 4
Conditions: modified: phospho on T at position -2 from the C-terminal residue

Question: Which pKd does the source give for SKPTRRETEV [HPV35-E6_-2P, P27228] here?
Answer: below the threshold

Target: T5, MPDZ_10, O75970
Assay: holdup assay
Set-up: key: below the threshold = too weak to quantify, mostly under pKd 3.1 to 4
Conditions: modified: phospho on T at position -2 from the C-terminal residue

Question: Which pKd does the source give for SKPTRRETEV [HPV35-E6_-2P, P27228] here?
Answer: below the threshold

Target: T6, HTRA3, P83110
Assay: holdup assay
Set-up: key: below the threshold = too weak to quantify, mostly under pKd 3.1 to 4
Conditions: modified: phospho on T at position -2 from the C-terminal residue

Question: For SKPTRRETEV [HPV35-E6_-2P, P27228], which pKd is on record?
Answer: below the threshold

Target: LAP2, Q96RT1
Sequence (Q96RT1 other isoform, or with tags, fused parts or gaps): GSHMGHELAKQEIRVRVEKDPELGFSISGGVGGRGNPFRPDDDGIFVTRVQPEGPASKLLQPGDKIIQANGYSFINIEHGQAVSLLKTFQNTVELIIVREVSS
Assay: holdup assay
Set-up: key: below the threshold = too weak to quantify, mostly under pKd 3.1 to 4
Conditions: modified: phospho on T at position -2 from the C-terminal residue

Question: How did the pKd turn out when SKPTRRETEV [HPV35-E6_-2P, P27228] was run?
Answer: below the threshold

Target: Inadl_10, Q8NI35
Sequence (Q8NI35 1673-1763): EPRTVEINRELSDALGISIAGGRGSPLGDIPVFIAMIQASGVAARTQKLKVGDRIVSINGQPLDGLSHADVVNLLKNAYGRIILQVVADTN
Assay: holdup assay
Set-up: key: below the threshold = too weak to quantify, mostly under pKd 3.1 to 4
Conditions: modified: phospho on T at position -2 from the C-terminal residue

Question: SKPTRRETEV [HPV35-E6_-2P, P27228] was tested. Which pKd did it give?
Answer: below the threshold

Target: IL16_1, Q14005
Sequence (Q14005 210-306): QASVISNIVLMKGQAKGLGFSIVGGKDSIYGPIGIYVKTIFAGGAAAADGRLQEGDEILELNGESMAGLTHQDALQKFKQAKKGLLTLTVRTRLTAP
Assay: holdup assay
Set-up: key: below the threshold = too weak to quantify, mostly under pKd 3.1 to 4
Conditions: modified: phospho on T at position -2 from the C-terminal residue

Question: With SKPTRRETEV [HPV35-E6_-2P, P27228] as the binder, how does the pKd read?
Answer: below the threshold

Target: T7, DFNB31_1, Q9P202
Assay: holdup assay
Set-up: key: below the threshold = too weak to quantify, mostly under pKd 3.1 to 4
Conditions: modified: phospho on T at position -2 from the C-terminal residue

Question: How did the pKd turn out when SKPTRRETEV [HPV35-E6_-2P, P27228] was run?
Answer: below the threshold

Target: T8, DLG3_1, Q92796
Assay: holdup assay
Set-up: key: below the threshold = too weak to quantify, mostly under pKd 3.1 to 4
Conditions: modified: phospho on T at position -2 from the C-terminal residue

Question: How did the pKd turn out when SKPTRRETEV [HPV35-E6_-2P, P27228] was run?
Answer: below the threshold

Target: Inadl_5, Q8NI35
Sequence (Q8NI35 673-780): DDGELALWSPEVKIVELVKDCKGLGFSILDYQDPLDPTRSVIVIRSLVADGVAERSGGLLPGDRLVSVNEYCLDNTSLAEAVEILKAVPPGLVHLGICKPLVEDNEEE
Assay: holdup assay
Set-up: key: below the threshold = too weak to quantify, mostly under pKd 3.1 to 4
Conditions: modified: phospho on T at position -2 from the C-terminal residue

Question: How did the pKd turn out when SKPTRRETEV [HPV35-E6_-2P, P27228] was run?
Answer: below the threshold

Target: GORASP2, Q9H8Y8
Assay: holdup assay
Set-up: key: below the threshold = too weak to quantify, mostly under pKd 3.1 to 4
Conditions: modified: phospho on T at position -2 from the C-terminal residue

Question: Which pKd does the source give for SKPTRRETEV [HPV35-E6_-2P, P27228] here?
Answer: below the threshold

Target: DLG4_1, P78352
Sequence (P78352 62-152): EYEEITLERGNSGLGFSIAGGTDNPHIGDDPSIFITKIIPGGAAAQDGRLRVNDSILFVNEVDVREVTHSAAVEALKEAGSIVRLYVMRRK
Assay: holdup assay
Set-up: key: below the threshold = too weak to quantify, mostly under pKd 3.1 to 4
Conditions: modified: phospho on T at position -2 from the C-terminal residue

Question: Which pKd does the source give for SKPTRRETEV [HPV35-E6_-2P, P27228] here?
Answer: below the threshold

Target: NOS1, P29475
Sequence (P29475 9-101): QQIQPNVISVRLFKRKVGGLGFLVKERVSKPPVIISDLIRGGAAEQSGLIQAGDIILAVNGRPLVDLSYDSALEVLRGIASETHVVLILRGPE
Assay: holdup assay
Set-up: key: below the threshold = too weak to quantify, mostly under pKd 3.1 to 4
Conditions: modified: phospho on T at position -2 from the C-terminal residue

Question: For SKPTRRETEV [HPV35-E6_-2P, P27228], which pKd is on record?
Answer: below the threshold

Target: NHERF4_4, Q86UT5
Sequence (Q86UT5 464-550): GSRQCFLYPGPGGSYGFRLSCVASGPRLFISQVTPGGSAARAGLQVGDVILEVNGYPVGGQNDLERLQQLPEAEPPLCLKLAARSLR
Assay: holdup assay
Set-up: key: below the threshold = too weak to quantify, mostly under pKd 3.1 to 4
Conditions: modified: phospho on T at position -2 from the C-terminal residue

Question: With SKPTRRETEV [HPV35-E6_-2P, P27228] as the binder, how does the pKd read?
Answer: 3.86

Target: DLG1_3, Q12959
Sequence (Q12959 457-571): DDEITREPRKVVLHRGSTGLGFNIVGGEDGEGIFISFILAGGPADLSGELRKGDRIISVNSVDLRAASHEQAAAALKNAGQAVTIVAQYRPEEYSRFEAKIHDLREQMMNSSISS
Assay: holdup assay
Set-up: key: below the threshold = too weak to quantify, mostly under pKd 3.1 to 4
Conditions: modified: phospho on T at position -2 from the C-terminal residue

Question: For SKPTRRETEV [HPV35-E6_-2P, P27228], which pKd is on record?
Answer: below the threshold

Target: Inadl_9, Q8NI35
Sequence (Q8NI35 1530-1615): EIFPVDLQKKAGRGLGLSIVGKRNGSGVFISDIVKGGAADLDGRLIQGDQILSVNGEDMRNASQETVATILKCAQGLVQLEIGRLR
Assay: holdup assay
Set-up: key: below the threshold = too weak to quantify, mostly under pKd 3.1 to 4
Conditions: modified: phospho on T at position -2 from the C-terminal residue

Question: How did the pKd turn out when SKPTRRETEV [HPV35-E6_-2P, P27228] was run?
Answer: below the threshold

Target: TJP2_1, Q9UDY2
Sequence (Q9UDY2 24-128): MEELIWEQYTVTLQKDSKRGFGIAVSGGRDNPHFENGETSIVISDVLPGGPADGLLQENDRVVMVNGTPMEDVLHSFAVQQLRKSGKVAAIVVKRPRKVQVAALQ
Assay: holdup assay
Set-up: key: below the threshold = too weak to quantify, mostly under pKd 3.1 to 4
Conditions: modified: phospho on T at position -2 from the C-terminal residue

Question: How did the pKd turn out when SKPTRRETEV [HPV35-E6_-2P, P27228] was run?
Answer: below the threshold

Target: T9, PTPN13_1, Q12923
Assay: holdup assay
Set-up: key: below the threshold = too weak to quantify, mostly under pKd 3.1 to 4
Conditions: modified: phospho on T at position -2 from the C-terminal residue

Question: Which pKd does the source give for SKPTRRETEV [HPV35-E6_-2P, P27228] here?
Answer: below the threshold

Target: T10, LIN7B, Q9HAP6
Assay: holdup assay
Set-up: key: below the threshold = too weak to quantify, mostly under pKd 3.1 to 4
Conditions: modified: phospho on T at position -2 from the C-terminal residue

Question: With SKPTRRETEV [HPV35-E6_-2P, P27228] as the binder, how does the pKd read?
Answer: below the threshold

Target: T11, GRIP1_2, Q9Y3R0
Assay: holdup assay
Set-up: key: below the threshold = too weak to quantify, mostly under pKd 3.1 to 4
Conditions: modified: phospho on T at position -2 from the C-terminal residue

Question: How did the pKd turn out when SKPTRRETEV [HPV35-E6_-2P, P27228] was run?
Answer: below the threshold

Target: T12, SYNJ2BP, P57105
Assay: holdup assay
Set-up: key: below the threshold = too weak to quantify, mostly under pKd 3.1 to 4
Conditions: modified: phospho on T at position -2 from the C-terminal residue

Question: How did the pKd turn out when SKPTRRETEV [HPV35-E6_-2P, P27228] was run?
Answer: below the threshold
